Reference: PMC2974046

Legend:
Test in all cases: purified protein
[1] = system: NC(=O)/C=C/C(=O)NC[C@H](N)C(=O)O; details: 5 mM L-valine, 10 mM ATP, 12 mM MgCl2, HEPES pH 8, room temperature
[2] = system: NC(=O)[C@@H]1O[C@H]1C(=O)NC[C@H](N)C(=O)O; details: 5 mM L-valine, 10 mM ATP, 12 mM MgCl2, HEPES pH 8, room temperature
[3] = system: NC(=O)/C=C/C(=O)NC[C@H](N)C(=O)O; assay type: biochemical, Pantoea agglomerans; details: adenylation (A) domain, ATP, Mg2+, pH 7.5, room temperature

Substance | Km [1] [µM] | kcat [1] [s⁻¹] | kcat/Km [1] [M⁻¹ s⁻¹] | Km [2] [µM] | kcat [2] [s⁻¹] | kcat/Km [2] [M⁻¹ s⁻¹] | Km [3] [µM] | kcat [3] [s⁻¹]
DdaF (Pantoea agglomerans) | 72 ± 34 | 0.35 ± 0.05 | 4830 | 53 ± 7 | 3.02 ± 0.117 | 56700 |  | 
DdaD (Pantoea agglomerans) |  |  |  |  |  |  | 420 ± 80 | 1.07 ± 0.083
